The source of these data is publication PMC10764318.

Common to all, as to assay: BLI
The target in test [1] is WRAIR-5021 (rhesus macaque).
Test [2] concerns the target WRAIR-5005 (rhesus macaque).
Test [3] deals with WRAIR-5011 (rhesus macaque).
The target in test [4] is WRAIR-5001 (rhesus macaque | human).
Test [5] has as its target WRAIR-5020 (rhesus macaque).
Test [6] addresses WRAIR-5004 (rhesus macaque).

Sequence of WRAIR-5005 (rhesus macaque) (VH, as listed by the source, chain 1 of 2): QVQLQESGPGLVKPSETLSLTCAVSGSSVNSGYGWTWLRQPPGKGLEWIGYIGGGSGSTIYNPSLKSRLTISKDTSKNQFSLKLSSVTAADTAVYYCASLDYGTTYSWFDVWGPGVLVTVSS
Sequence of WRAIR-5005 (rhesus macaque) (VL, as listed by the source, chain 2 of 2): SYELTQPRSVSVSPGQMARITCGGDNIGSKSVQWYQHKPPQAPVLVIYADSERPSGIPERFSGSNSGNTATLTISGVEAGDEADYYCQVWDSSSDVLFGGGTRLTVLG
Sequence of WRAIR-5004 (rhesus macaque) (VH, as listed by the source, chain 1 of 2): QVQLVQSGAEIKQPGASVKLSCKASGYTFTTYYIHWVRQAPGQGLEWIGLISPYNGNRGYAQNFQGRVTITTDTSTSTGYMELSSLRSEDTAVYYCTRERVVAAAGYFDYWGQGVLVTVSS
Sequence of WRAIR-5004 (rhesus macaque) (VL, as listed by the source, chain 2 of 2): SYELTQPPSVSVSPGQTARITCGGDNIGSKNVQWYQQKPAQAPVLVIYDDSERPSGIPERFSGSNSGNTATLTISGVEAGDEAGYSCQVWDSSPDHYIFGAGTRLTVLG
Sequence of WRAIR-5011 (rhesus macaque) (VH, as listed by the source, chain 1 of 2): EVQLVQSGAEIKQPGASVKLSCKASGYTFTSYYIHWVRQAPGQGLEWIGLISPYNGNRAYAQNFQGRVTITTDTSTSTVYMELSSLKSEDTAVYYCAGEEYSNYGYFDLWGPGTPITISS
Sequence of WRAIR-5011 (rhesus macaque) (VL, as listed by the source, chain 2 of 2): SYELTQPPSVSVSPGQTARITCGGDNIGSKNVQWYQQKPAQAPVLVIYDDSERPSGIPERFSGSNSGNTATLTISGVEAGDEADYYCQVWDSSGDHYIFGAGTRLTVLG
Sequence of WRAIR-5020 (rhesus macaque) (VH, as listed by the source, chain 1 of 2): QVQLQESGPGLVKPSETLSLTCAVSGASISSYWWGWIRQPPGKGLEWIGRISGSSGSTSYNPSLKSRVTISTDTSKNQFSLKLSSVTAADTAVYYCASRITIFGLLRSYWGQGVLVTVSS
Sequence of WRAIR-5020 (rhesus macaque) (VL, as listed by the source, chain 2 of 2): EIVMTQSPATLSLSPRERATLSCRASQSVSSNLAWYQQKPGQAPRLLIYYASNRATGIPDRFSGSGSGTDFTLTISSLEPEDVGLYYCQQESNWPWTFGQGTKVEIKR
Sequence of WRAIR-5021 (rhesus macaque) (VH, as listed by the source, chain 1 of 2): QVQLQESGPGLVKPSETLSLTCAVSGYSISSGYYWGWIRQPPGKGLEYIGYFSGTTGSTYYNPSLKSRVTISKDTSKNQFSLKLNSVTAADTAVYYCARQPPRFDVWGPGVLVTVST
Sequence of WRAIR-5021 (rhesus macaque) (VL, as listed by the source, chain 2 of 2): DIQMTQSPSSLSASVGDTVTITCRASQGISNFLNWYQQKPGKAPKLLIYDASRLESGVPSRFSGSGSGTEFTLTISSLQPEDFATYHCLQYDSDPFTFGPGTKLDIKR

For orientation: Kd means the concentration at which binding is half-saturated. Low values mean tighter binding, high ones weaker binding. In the case of “SARS-CoV-2 Omicron BA.4/5 RBD (from UniProt P0DTC2 331-527) (domain or fragment)”, the dissociation constant (Kd) in test [1] is 2.63 nM; in test [2], 41.1 nM; in test [3] it was 0.42 nM; in test [4] it was 0.92 nM; in test [5], 34.5 nM; in test [6] it was 3.1 nM.
With “SARS-CoV-2 Omicron BA.1 RBD (from UniProt P0DTC2 331-527) (domain or fragment)”, the Kd came out at 8.05 nM in test [1]; 14.9 nM in test [2]; 0.38 nM in test [3]; 0.23 nM in test [4]; 24.1 nM in test [5]; 1.93 nM in test [6].
